Square brackets hold non-standard residues; d marks the D form. Ends that are not written are not given here. Nle = CCCC[C@H](N)C(=O)O; Dab = NCC[C@H](N)C(=O)O
target: STAT3 (human, UniProt P40763 2-770, limits assumed); assay: cell-based or functional assay
Sequence (P40763 2-770 limits assumed): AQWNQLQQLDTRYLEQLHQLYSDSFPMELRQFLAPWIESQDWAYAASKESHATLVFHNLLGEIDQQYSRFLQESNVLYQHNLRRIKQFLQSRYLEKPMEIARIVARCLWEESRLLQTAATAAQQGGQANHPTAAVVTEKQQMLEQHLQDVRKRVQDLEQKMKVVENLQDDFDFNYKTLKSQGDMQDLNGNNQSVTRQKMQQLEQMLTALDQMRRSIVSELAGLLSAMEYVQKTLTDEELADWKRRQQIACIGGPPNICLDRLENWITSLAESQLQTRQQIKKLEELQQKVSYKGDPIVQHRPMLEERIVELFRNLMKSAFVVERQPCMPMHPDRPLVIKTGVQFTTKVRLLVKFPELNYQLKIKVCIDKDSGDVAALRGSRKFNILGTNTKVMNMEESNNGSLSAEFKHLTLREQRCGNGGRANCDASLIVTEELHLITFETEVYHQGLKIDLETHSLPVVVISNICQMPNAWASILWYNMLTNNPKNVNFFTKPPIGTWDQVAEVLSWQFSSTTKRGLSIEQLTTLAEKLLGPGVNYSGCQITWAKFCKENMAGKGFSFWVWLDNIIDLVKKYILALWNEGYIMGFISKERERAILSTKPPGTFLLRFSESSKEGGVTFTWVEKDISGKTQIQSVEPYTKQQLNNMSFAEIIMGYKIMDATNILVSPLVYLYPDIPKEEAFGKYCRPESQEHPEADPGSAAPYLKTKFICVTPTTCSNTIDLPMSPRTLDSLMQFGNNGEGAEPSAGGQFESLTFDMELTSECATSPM

Row | Binder | Activity, % of control (luciferase reporter, GAS or STAT3 element, MCF-7 cells)
1 | DTRYLEQLHKLYSRQIKIWFPNRR[Nle]KWKK-NH2 (N-terminus assumed; SMILES CCCC[C@H](NC(=O)[C@H](CCCNC(=N)N)NC(=O)[C@H](CCCNC(=N)N)NC(=O)[C@H](CC(N)=O)NC(=O)[C@@H]1CCCN1C(=O)[C@H](Cc1ccccc1)NC(=O)[C@H](Cc1c[nH]c2ccccc12)NC(=O)[C@@H](NC(=O)[C@H](CCCCN)NC(=O)[C@@H](NC(=O)[C@H](CCC(N)=O)NC(=O)[C@H](CCCNC(=N)N)NC(=O)[C@H](CO)NC(=O)[C@H](Cc1ccc(O)cc1)NC(=O)[C@H](CC(C)C)NC(=O)[C@H](CCCCN)NC(=O)[C@H](Cc1c[nH]cn1)NC(=O)[C@H](CC(C)C)NC(=O)[C@H](CCC(N)=O)NC(=O)[C@H](CCC(=O)O)NC(=O)[C@H](CC(C)C)NC(=O)[C@H](Cc1ccc(O)cc1)NC(=O)[C@H](CCCNC(=N)N)NC(=O)[C@@H](NC(=O)[C@@H](N)CC(=O)O)[C@@H](C)O)[C@@H](C)CC)[C@@H](C)CC)C(=O)N[C@@H](CCCCN)C(=O)N[C@@H](Cc1c[nH]c2ccccc12)C(=O)N[C@@H](CCCCN)C(=O)N[C@@H](CCCCN)C(N)=O) [Hel2A-Pen] | 100 % of control
2 | LDTRYLEQLHKLYSRQIKIWFPNRR[Nle]KWKK-NH2 (N-terminus assumed; SMILES CCCC[C@H](NC(=O)[C@H](CCCNC(=N)N)NC(=O)[C@H](CCCNC(=N)N)NC(=O)[C@H](CC(N)=O)NC(=O)[C@@H]1CCCN1C(=O)[C@H](Cc1ccccc1)NC(=O)[C@H](Cc1c[nH]c2ccccc12)NC(=O)[C@@H](NC(=O)[C@H](CCCCN)NC(=O)[C@@H](NC(=O)[C@H](CCC(N)=O)NC(=O)[C@H](CCCNC(=N)N)NC(=O)[C@H](CO)NC(=O)[C@H](Cc1ccc(O)cc1)NC(=O)[C@H](CC(C)C)NC(=O)[C@H](CCCCN)NC(=O)[C@H](Cc1c[nH]cn1)NC(=O)[C@H](CC(C)C)NC(=O)[C@H](CCC(N)=O)NC(=O)[C@H](CCC(=O)O)NC(=O)[C@H](CC(C)C)NC(=O)[C@H](Cc1ccc(O)cc1)NC(=O)[C@H](CCCNC(=N)N)NC(=O)[C@@H](NC(=O)[C@H](CC(=O)O)NC(=O)[C@@H](N)CC(C)C)[C@@H](C)O)[C@@H](C)CC)[C@@H](C)CC)C(=O)N[C@@H](CCCCN)C(=O)N[C@@H](Cc1c[nH]c2ccccc12)C(=O)N[C@@H](CCCCN)C(=O)N[C@@H](CCCCN)C(N)=O) [Hel2B-Pen] | 100 % of control
3 | DTRYLEQLH[Dab]LYRQIKIWFPNRR[Nle]KWKK-NH2 (N-terminus assumed; SMILES CCCC[C@H](NC(=O)[C@H](CCCNC(=N)N)NC(=O)[C@H](CCCNC(=N)N)NC(=O)[C@H](CC(N)=O)NC(=O)[C@@H]1CCCN1C(=O)[C@H](Cc1ccccc1)NC(=O)[C@H](Cc1c[nH]c2ccccc12)NC(=O)[C@@H](NC(=O)[C@H](CCCCN)NC(=O)[C@@H](NC(=O)[C@H](CCC(N)=O)NC(=O)[C@H](CCCNC(=N)N)NC(=O)[C@H](Cc1ccc(O)cc1)NC(=O)[C@H](CC(C)C)NC(=O)[C@H](CCN)NC(=O)[C@H](Cc1c[nH]cn1)NC(=O)[C@H](CC(C)C)NC(=O)[C@H](CCC(N)=O)NC(=O)[C@H](CCC(=O)O)NC(=O)[C@H](CC(C)C)NC(=O)[C@H](Cc1ccc(O)cc1)NC(=O)[C@H](CCCNC(=N)N)NC(=O)[C@@H](NC(=O)[C@@H](N)CC(=O)O)[C@@H](C)O)[C@@H](C)CC)[C@@H](C)CC)C(=O)N[C@@H](CCCCN)C(=O)N[C@@H](Cc1c[nH]c2ccccc12)C(=O)N[C@@H](CCCCN)C(=O)N[C@@H](CCCCN)C(N)=O) [Hel2I-Pen] | 53 % of control

Other lines, results leading:

Row | Activity, % of control (luciferase reporter, GAS or STAT3 element, MCF-7 cells) | Binder
4 | 56 % of control | LDTRYLEQLHQLYSRQIKIWFPNRR[Nle]KWKK-NH2 (N-terminus assumed; SMILES CCCC[C@H](NC(=O)[C@H](CCCNC(=N)N)NC(=O)[C@H](CCCNC(=N)N)NC(=O)[C@H](CC(N)=O)NC(=O)[C@@H]1CCCN1C(=O)[C@H](Cc1ccccc1)NC(=O)[C@H](Cc1c[nH]c2ccccc12)NC(=O)[C@@H](NC(=O)[C@H](CCCCN)NC(=O)[C@@H](NC(=O)[C@H](CCC(N)=O)NC(=O)[C@H](CCCNC(=N)N)NC(=O)[C@H](CO)NC(=O)[C@H](Cc1ccc(O)cc1)NC(=O)[C@H](CC(C)C)NC(=O)[C@H](CCC(N)=O)NC(=O)[C@H](Cc1c[nH]cn1)NC(=O)[C@H](CC(C)C)NC(=O)[C@H](CCC(N)=O)NC(=O)[C@H](CCC(=O)O)NC(=O)[C@H](CC(C)C)NC(=O)[C@H](Cc1ccc(O)cc1)NC(=O)[C@H](CCCNC(=N)N)NC(=O)[C@@H](NC(=O)[C@H](CC(=O)O)NC(=O)[C@@H](N)CC(C)C)[C@@H](C)O)[C@@H](C)CC)[C@@H](C)CC)C(=O)N[C@@H](CCCCN)C(=O)N[C@@H](Cc1c[nH]c2ccccc12)C(=O)N[C@@H](CCCCN)C(=O)N[C@@H](CCCCN)C(N)=O) [Hel2-Pen]
5 | 71 % of control | LDTRYLEQLHKLYRQIKIWFPNRR[Nle]KWKK-NH2 (N-terminus assumed; SMILES CCCC[C@H](NC(=O)[C@H](CCCNC(=N)N)NC(=O)[C@H](CCCNC(=N)N)NC(=O)[C@H](CC(N)=O)NC(=O)[C@@H]1CCCN1C(=O)[C@H](Cc1ccccc1)NC(=O)[C@H](Cc1c[nH]c2ccccc12)NC(=O)[C@@H](NC(=O)[C@H](CCCCN)NC(=O)[C@@H](NC(=O)[C@H](CCC(N)=O)NC(=O)[C@H](CCCNC(=N)N)NC(=O)[C@H](Cc1ccc(O)cc1)NC(=O)[C@H](CC(C)C)NC(=O)[C@H](CCCCN)NC(=O)[C@H](Cc1c[nH]cn1)NC(=O)[C@H](CC(C)C)NC(=O)[C@H](CCC(N)=O)NC(=O)[C@H](CCC(=O)O)NC(=O)[C@H](CC(C)C)NC(=O)[C@H](Cc1ccc(O)cc1)NC(=O)[C@H](CCCNC(=N)N)NC(=O)[C@@H](NC(=O)[C@H](CC(=O)O)NC(=O)[C@@H](N)CC(C)C)[C@@H](C)O)[C@@H](C)CC)[C@@H](C)CC)C(=O)N[C@@H](CCCCN)C(=O)N[C@@H](Cc1c[nH]c2ccccc12)C(=O)N[C@@H](CCCCN)C(=O)N[C@@H](CCCCN)C(N)=O) [Hel2A-2-Pen]
6 | 43 % of control | LDTRYLEQLH[Dab]LYRQIKIWFPNRR[Nle]KWKK-NH2 (N-terminus assumed; SMILES CCCC[C@H](NC(=O)[C@H](CCCNC(=N)N)NC(=O)[C@H](CCCNC(=N)N)NC(=O)[C@H](CC(N)=O)NC(=O)[C@@H]1CCCN1C(=O)[C@H](Cc1ccccc1)NC(=O)[C@H](Cc1c[nH]c2ccccc12)NC(=O)[C@@H](NC(=O)[C@H](CCCCN)NC(=O)[C@@H](NC(=O)[C@H](CCC(N)=O)NC(=O)[C@H](CCCNC(=N)N)NC(=O)[C@H](Cc1ccc(O)cc1)NC(=O)[C@H](CC(C)C)NC(=O)[C@H](CCN)NC(=O)[C@H](Cc1c[nH]cn1)NC(=O)[C@H](CC(C)C)NC(=O)[C@H](CCC(N)=O)NC(=O)[C@H](CCC(=O)O)NC(=O)[C@H](CC(C)C)NC(=O)[C@H](Cc1ccc(O)cc1)NC(=O)[C@H](CCCNC(=N)N)NC(=O)[C@@H](NC(=O)[C@H](CC(=O)O)NC(=O)[C@@H](N)CC(C)C)[C@@H](C)O)[C@@H](C)CC)[C@@H](C)CC)C(=O)N[C@@H](CCCCN)C(=O)N[C@@H](Cc1c[nH]c2ccccc12)C(=O)N[C@@H](CCCCN)C(=O)N[C@@H](CCCCN)C(N)=O) [Hel2H-Pen]
7 | 89 % of control | Ac-DTRYLEQLHALYRQIKIWFPNRR[Nle]KWKK-NH2 (SMILES CCCC[C@H](NC(=O)[C@H](CCCNC(=N)N)NC(=O)[C@H](CCCNC(=N)N)NC(=O)[C@H](CC(N)=O)NC(=O)[C@@H]1CCCN1C(=O)[C@H](Cc1ccccc1)NC(=O)[C@H](Cc1c[nH]c2ccccc12)NC(=O)[C@@H](NC(=O)[C@H](CCCCN)NC(=O)[C@@H](NC(=O)[C@H](CCC(N)=O)NC(=O)[C@H](CCCNC(=N)N)NC(=O)[C@H](Cc1ccc(O)cc1)NC(=O)[C@H](CC(C)C)NC(=O)[C@H](C)NC(=O)[C@H](Cc1c[nH]cn1)NC(=O)[C@H](CC(C)C)NC(=O)[C@H](CCC(N)=O)NC(=O)[C@H](CCC(=O)O)NC(=O)[C@H](CC(C)C)NC(=O)[C@H](Cc1ccc(O)cc1)NC(=O)[C@H](CCCNC(=N)N)NC(=O)[C@@H](NC(=O)[C@H](CC(=O)O)NC(C)=O)[C@@H](C)O)[C@@H](C)CC)[C@@H](C)CC)C(=O)N[C@@H](CCCCN)C(=O)N[C@@H](Cc1c[nH]c2ccccc12)C(=O)N[C@@H](CCCCN)C(=O)N[C@@H](CCCCN)C(N)=O) [Hel2A-3-Pen]
